Source: patent US9845340B2, “Peptides that specifically bind HGF receptor (cMet) and uses thereof” (Dyax Corp., priority 2003, dated 2017)

Legend:
[1] = target: T1, 3T3 cells that over-express human cMet (Homo sapiens, UniProt P08581); assay: Whole cell ELISA of peptide-displaying phage; type: cell-based; conditions: phage isolate; 3T3 cells expressing human cMet vs. non-expressing 3T3 cells
T1 construct: expressed in transfected cells; host or cells: 3T3 cells
Description: Whole cell ELISAs were performed using 3T3 cells that over-express human cMet. […] Briefly, 96-well plates were seeded with 10^5 cells per well. The plates were centrifuged for 5 minutes at 1600 rpm to pellet the cells. The resulting cell layer was fixed with 0.1% (v/v) glutaraldehyde for 12 minutes at 37 C. […] Peptide-displaying phage also were blocked in the above solution for 1 hour at 37 C. 100 μL of blocked phage was then added to each well and the plates were incubated for 1 hour at room temperature. The plates were washed with PBST. cMet-binding peptide-displaying phage were detected using an HRP-conjugated anti-M13 antibody.

cMet-Fc fusion protein = cMet-Fc fusion protein (Homo sapiens, UniProt P08581); assay: Protein phage ELISA: peptide-displaying phage binding to soluble cMet-Fc versus TRAIL-Fc; conditions: phage isolate; cMet-Fc vs. TRAIL-Fc
Sequence of cMet-Fc fusion protein (P08581 25-307 limits assumed): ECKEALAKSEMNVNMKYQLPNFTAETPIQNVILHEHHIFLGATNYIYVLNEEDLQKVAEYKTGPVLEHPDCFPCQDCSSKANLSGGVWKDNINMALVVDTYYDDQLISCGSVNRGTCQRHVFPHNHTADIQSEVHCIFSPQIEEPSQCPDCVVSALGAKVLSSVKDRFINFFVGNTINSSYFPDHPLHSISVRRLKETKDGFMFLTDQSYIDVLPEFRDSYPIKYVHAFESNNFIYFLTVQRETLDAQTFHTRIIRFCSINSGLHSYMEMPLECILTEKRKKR
Sequence of cMet-Fc fusion protein (P08581 with tags, fused parts or gaps limits assumed): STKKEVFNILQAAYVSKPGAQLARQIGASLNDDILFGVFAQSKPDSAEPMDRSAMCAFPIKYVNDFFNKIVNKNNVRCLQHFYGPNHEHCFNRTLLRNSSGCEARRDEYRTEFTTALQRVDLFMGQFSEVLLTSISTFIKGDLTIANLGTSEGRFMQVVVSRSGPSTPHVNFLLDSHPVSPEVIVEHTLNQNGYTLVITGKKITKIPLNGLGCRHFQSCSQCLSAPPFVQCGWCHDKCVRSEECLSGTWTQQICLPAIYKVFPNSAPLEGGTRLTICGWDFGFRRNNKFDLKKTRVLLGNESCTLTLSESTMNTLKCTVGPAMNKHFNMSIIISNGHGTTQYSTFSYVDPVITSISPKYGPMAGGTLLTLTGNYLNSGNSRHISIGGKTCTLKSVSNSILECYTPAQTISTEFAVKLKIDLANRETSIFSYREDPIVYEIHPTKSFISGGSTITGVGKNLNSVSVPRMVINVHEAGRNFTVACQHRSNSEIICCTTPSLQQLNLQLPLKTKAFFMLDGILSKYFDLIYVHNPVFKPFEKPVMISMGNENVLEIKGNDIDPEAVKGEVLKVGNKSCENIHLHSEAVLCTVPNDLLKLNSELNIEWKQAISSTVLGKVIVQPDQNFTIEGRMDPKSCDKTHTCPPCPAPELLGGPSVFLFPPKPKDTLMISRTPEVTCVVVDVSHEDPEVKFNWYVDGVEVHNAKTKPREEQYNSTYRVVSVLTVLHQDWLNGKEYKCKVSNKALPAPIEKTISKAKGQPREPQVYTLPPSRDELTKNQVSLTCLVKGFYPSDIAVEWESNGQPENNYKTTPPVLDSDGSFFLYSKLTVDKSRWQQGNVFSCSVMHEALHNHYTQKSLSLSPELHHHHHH
Description: Protein phage ELISAs using peptide-displaying phage isolates from the various selection campaigns were performed to determine specificity of the peptides for cMet versus an unrelated Fc-fusion protein (TRAIL-Fc). Briefly, 384-well plates were coated overnight at 4 C with 0.5 μg/mL of cMet-Fc fusion protein or TRAIL-Fc fusion protein (background). The plates were blocked for 2 hours 37C with 3% (w/v) BSA in PBS containing 0.05% (v/v) Tween-20 (PBST). The plates were washed with PBST and 100 μL of peptide-displaying phage were added to each well. The plates were incubated for 2 hours at room temperature and washed with PBST. cMet-binding peptide-displaying phage were detected using an HRP-conjugated anti-M13 antibody.

T1 sequence (P08581 25-1390): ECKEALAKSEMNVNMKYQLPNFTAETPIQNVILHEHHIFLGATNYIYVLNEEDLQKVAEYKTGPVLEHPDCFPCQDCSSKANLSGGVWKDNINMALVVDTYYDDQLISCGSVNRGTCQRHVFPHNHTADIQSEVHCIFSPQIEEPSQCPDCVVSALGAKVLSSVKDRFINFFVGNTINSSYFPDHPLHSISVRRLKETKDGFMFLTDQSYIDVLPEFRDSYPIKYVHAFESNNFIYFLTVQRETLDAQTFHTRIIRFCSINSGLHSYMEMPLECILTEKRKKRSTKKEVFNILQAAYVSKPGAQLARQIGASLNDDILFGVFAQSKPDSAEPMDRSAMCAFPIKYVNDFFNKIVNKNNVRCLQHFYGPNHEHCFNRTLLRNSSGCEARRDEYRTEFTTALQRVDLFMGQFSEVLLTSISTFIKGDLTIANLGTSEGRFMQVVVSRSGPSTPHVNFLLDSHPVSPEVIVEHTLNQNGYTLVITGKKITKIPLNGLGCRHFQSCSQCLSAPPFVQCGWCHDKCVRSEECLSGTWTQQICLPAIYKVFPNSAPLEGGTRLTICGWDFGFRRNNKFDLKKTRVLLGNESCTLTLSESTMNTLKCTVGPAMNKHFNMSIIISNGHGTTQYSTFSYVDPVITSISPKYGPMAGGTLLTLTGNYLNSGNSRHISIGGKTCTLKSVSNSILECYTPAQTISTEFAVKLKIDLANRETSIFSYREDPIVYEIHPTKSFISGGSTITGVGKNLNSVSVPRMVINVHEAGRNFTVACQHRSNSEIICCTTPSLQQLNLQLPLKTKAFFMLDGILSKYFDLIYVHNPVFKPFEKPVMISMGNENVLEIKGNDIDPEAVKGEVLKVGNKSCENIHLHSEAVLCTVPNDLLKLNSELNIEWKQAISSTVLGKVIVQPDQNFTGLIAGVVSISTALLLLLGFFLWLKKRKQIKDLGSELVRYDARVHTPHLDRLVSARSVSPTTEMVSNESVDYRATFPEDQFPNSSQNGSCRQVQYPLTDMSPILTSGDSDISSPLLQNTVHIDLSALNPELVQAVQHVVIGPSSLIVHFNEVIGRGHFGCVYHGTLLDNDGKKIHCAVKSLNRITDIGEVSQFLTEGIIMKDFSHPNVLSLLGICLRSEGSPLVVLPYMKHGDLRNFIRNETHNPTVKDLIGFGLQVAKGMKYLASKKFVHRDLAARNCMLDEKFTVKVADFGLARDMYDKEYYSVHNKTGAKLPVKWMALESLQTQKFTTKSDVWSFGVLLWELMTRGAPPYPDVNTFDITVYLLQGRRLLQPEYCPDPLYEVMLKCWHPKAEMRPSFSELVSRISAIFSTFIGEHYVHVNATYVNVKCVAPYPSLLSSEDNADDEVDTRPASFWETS

Compound	WC ELISA [1] [fold over background]	Protein ELISA (cMet-Fc fusion protein) [fold over background]
AGQYLCTQAALGCPEWGT (Synthetically generated cMet-binding peptide sequence) [SEQ ID NO: 029]	1.23	4.3
AQDNTADQMFNGFHVLAMYMV (Synthetically generated cMet-binding peptide sequence) [SEQ ID NO: 481]	1.37	3.3
AGVLQCIGFEWFCDIWGT (Synthetically generated cMet-binding peptide sequence) [SEQ ID NO: 022]	1.40	3.4
AQHGYLSPLKQYQMSHVEFWTY (Synthetically generated cMet-binding peptide sequence) [SEQ ID NO: 476]	1.17	3.5
GSHHTCLDGFAGWRCTEVAP (Synthetically generated cMet-binding peptide sequence) [SEQ ID NO: 366]	1.33	10.4
CC(=O)N[C@@H](C)C(=O)NCC(=O)N[C@@H](Cc1c[nH]cn1)C(=O)N[C@@H](C)C(=O)N[C@@H](Cc1c[nH]c2ccccc12)C(=O)N[C@H]1CSSC[C@@H](C(=O)N[C@@H](Cc2c[nH]c3ccccc23)C(=O)N2CCC[C@H]2C(=O)N2CCC[C@H]2C(=O)NCC(=O)N[C@H](C(=O)NCC(=O)NCC(=O)NCC(=O)N[C@@H](CCCCNC(=O)c2ccc3c(c2)C(=O)OC32c3ccc(O)cc3Oc3cc(O)ccc32)C(N)=O)[C@@H](C)O)NC(=O)[C@H](CCC(=O)O)NC(=O)[C@H](Cc2ccccc2)NC(=O)[C@H](CCCNC(=N)N)NC(=O)[C@@H]2CCCN2C(=O)[C@@H]2CCCN2C(=O)CNC(=O)[C@H](CO)NC1=O [SEQ ID NO: 061]	1.27	3.2
CSCC[C@H](NC(=O)[C@H](CC(=O)O)NC(=O)[C@H](C)NC(=O)[C@H](CC(=O)O)NC(=O)[C@H](CCC(N)=O)NC(=O)[C@H](CC(C)C)NC(=O)[C@H](CCC(=O)O)NC(=O)[C@H](Cc1ccc(O)cc1)NC(=O)[C@H](Cc1ccc(O)cc1)NC(=O)[C@@H]1CCCN1C(=O)[C@H](CCC(N)=O)NC(=O)[C@H](C)NC(C)=O)C(=O)N[C@@H](CC(C)C)C(=O)N[C@@H](CC(C)C)C(=O)N[C@H](C(=O)N[C@H](C(=O)N[C@@H](C)C(=O)N[C@@H](CC(C)C)C(=O)N[C@@H](CC(C)C)C(=O)N[C@@H](CO)C(=O)N[C@H](C(=O)NCC(=O)NCC(=O)NCC(=O)NCC(=O)N[C@@H](CCCCNC(=O)c1ccc2c(c1)C(=O)OC21c2ccc(O)cc2Oc2cc(O)ccc21)C(N)=O)[C@@H](C)O)C(C)C)C(C)C [SEQ ID NO: 458]	1.20	6.1
AGYWDCKGPPHFFCEWHGT (Synthetically generated cMet-binding peptide sequence) [SEQ ID NO: 080]	1.23	7.4
ADAWMCEYFQWNCGDKGT (Synthetically generated cMet-binding peptide sequence) [SEQ ID NO: 046]	1.33	4.5
GSMLMCELWWCRFLAP (Synthetically generated cMet-binding peptide sequence) [SEQ ID NO: 004]	1.27	3.4
CC[C@H](C)[C@@H]1NC(=O)[C@H](Cc2ccc(O)cc2)NC(=O)[C@H]([C@@H](C)O)NC(=O)[C@H](CCC(=O)O)NC(=O)[C@H](CC(C)C)NC(=O)[C@H](CC(=O)O)NC(=O)[C@H](Cc2ccccc2)NC(=O)[C@H](CC(=O)O)NC(=O)[C@@H](NC(=O)[C@H](Cc2ccc(O)cc2)NC(=O)[C@H](CC(=O)O)NC(=O)[C@H](Cc2ccc(O)cc2)NC(=O)[C@H](CC(=O)O)NC(=O)CNC(C)=O)CSSC[C@@H](C(=O)N[C@@H](Cc2c[nH]cn2)C(=O)N[C@@H](CO)C(=O)N[C@@H](Cc2ccc(O)cc2)C(=O)N[C@@H](CC(=O)O)C(=O)N2CCC[C@H]2C(=O)NCC(=O)NCC(=O)NCC(=O)N[C@@H](CCCCNC(=O)c2ccc3c(c2)C(=O)OC32c3ccc(O)cc3Oc3cc(O)ccc32)C(N)=O)NC(=O)[C@H](CCC(=O)O)NC(=O)[C@@H]2CCCN2C1=O [SEQ ID NO: 390]	1.27	16.1
GSRFHCWQGDLMQTYCMPMAP (Synthetically generated cMet-binding peptide sequence) [SEQ ID NO: 376]	1.30	3.0
CC[C@H](C)[C@@H]1NC(=O)[C@@H](NC(=O)[C@H](Cc2c[nH]cn2)NC(=O)[C@@H](NC(=O)[C@H](Cc2c[nH]c3ccccc23)NC(=O)CNC(=O)[C@H](C)NC(C)=O)[C@@H](C)O)CSSC[C@@H](C(=O)N[C@H](C(=O)N2CCC[C@H]2C(=O)N[C@@H](CCSC)C(=O)NCC(=O)N[C@H](C(=O)NCC(=O)NCC(=O)NCC(=O)N[C@@H](CCCCNC(=O)c2ccc3c(c2)C(=O)OC32c3ccc(O)cc3Oc3cc(O)ccc32)C(N)=O)[C@@H](C)O)[C@@H](C)CC)NC(=O)[C@H](CCC(=O)O)NC(=O)[C@H](Cc2ccccc2)NC(=O)[C@H]([C@@H](C)O)NC(=O)[C@@H]2CCCN2C(=O)[C@@H]2CCCN2C(=O)CNC1=O [SEQ ID NO: 052]	1.30	8.0
AGSSPCKGWPTFECYFYGT (Synthetically generated cMet-binding peptide sequence) [SEQ ID NO: 087]	1.30	4.8

Second part, the compound after the results:

WC ELISA [1] [fold over background]	Protein ELISA (cMet-Fc fusion protein) [fold over background]	Compound
1.30	3.1	AQHVVTLTLIQMPFAFNFEPRM (Synthetically generated cMet-binding peptide sequence) [SEQ ID NO: 484]
1.33	13.8	AGYYGCKGPPTFECQWMGT (Synthetically generated cMet-binding peptide sequence) [SEQ ID NO: 049]
1.27	7.0	GSTKVCHEKWNQLFCHNQAP (Synthetically generated cMet-binding peptide sequence) [SEQ ID NO: 368]
1.33	5.4	CC(=O)N[C@@H](C)C(=O)NCC(=O)N[C@@H](Cc1c[nH]c2ccccc12)C(=O)N[C@@H](Cc1ccccc1)C(=O)N[C@@H](CCC(N)=O)C(=O)N[C@H]1CSSC[C@@H](C(=O)N[C@@H](CCC(=O)O)C(=O)N[C@@H](CCCNC(=N)N)C(=O)N[C@@H](Cc2c[nH]cn2)C(=O)NCC(=O)N[C@H](C(=O)NCC(=O)NCC(=O)NCC(=O)N[C@@H](CCCCNC(=O)c2ccc3c(c2)C(=O)OC32c3ccc(O)cc3Oc3cc(O)ccc32)C(N)=O)[C@@H](C)O)NC(=O)[C@H](CCC(=O)O)NC(=O)[C@H](Cc2ccccc2)NC(=O)[C@H](CO)NC(=O)[C@@H]2CCCN2C(=O)[C@@H]2CCCN2C(=O)CNC(=O)[C@H](CCCCN)NC1=O [SEQ ID NO: 051]
1.27	4.8	GSELFCFYHHQGYEGCDVLAP (Synthetically generated cMet-binding peptide sequence) [SEQ ID NO: 385]
1.27	17.1	AGSYWCSGPPTFMCRYEGT (Synthetically generated cMet-binding peptide sequence) [SEQ ID NO: 085]
1.40	5.5	AGYWHCKGPPHFACEFHGT (Synthetically generated cMet-binding peptide sequence) [SEQ ID NO: 077]
1.23	6.4	GSQNNCEYGSRGSSFCLAMAP (Synthetically generated cMet-binding peptide sequence) [SEQ ID NO: 377]
1.30	3.5	CC(=O)N[C@@H](C)C(=O)N[C@@H](CCC(N)=O)C(=O)N[C@@H](Cc1c[nH]cn1)C(=O)N[C@@H](Cc1c[nH]c2ccccc12)C(=O)N[C@@H](CC(=O)O)C(=O)N[C@@H](Cc1ccc(O)cc1)C(=O)N[C@@H](CC(=O)O)C(=O)N[C@@H](CO)C(=O)NCC(=O)N[C@@H](CO)C(=O)N[C@@H](CC(=O)O)C(=O)N[C@@H](Cc1ccccc1)C(=O)N[C@@H](Cc1c[nH]c2ccccc12)C(=O)N[C@@H](Cc1ccccc1)C(=O)N1CCC[C@H]1C(=O)N[C@H](C(=O)N[C@@H](Cc1ccccc1)C(=O)N[C@@H](Cc1ccccc1)C(=O)N[C@@H](CC(C)C)C(=O)N[C@@H](CCC(=O)O)C(=O)N[C@@H](Cc1c[nH]cn1)C(=O)N[C@@H](Cc1c[nH]cn1)C(=O)NCC(=O)NCC(=O)NCC(=O)N[C@@H](CCCCNC(=O)c1ccc2c(c1)C(=O)OC21c2ccc(O)cc2Oc2cc(O)ccc21)C(N)=O)C(C)C [SEQ ID NO: 475]
